Consider one protein from PMC8866124, “Visualizing protein breathing motions associated with aromatic ring flipping” (Nature, 2022).

The data set concerns the molecule itself. Kind of data set: crystal structure; wild-type JIP1-SH3 at 20 mg/ml; crystals in 0.1 M HEPES pH 7.5, 1-5% PEG 400, 2-2.5 M ammonium sulfate, 20 °C, hanging drop; molecular replacement with PDB 2FPE chains A-B.

B1: SH3 domain of the JNK-interacting protein 1 (JIP1), wild type (domain or fragment, human)
chain: GHMEQTHRAIFRFVPRHEDELELEVDDPLLVELQAEDYWYEAYNMRTGARGVFPAYYAIEVTK
notes: N-terminal extension left on the protein after cleavage by the TEV protease; Called dimeric in the legends; The wild-type structure was solved by molecular replacement with chains A-B of PDB 2FPE; also called JIP1-SH3; JIP1-SH3(WT); not shown: His6, N-terminal, cleaved
With B1, the binding result is reported as “binds”.
